Experiment [1] concerns the target T1, recombinant human Trop-2 (Sino Biological, Cat. No: 10428-H08H) (human, UniProt P09758 27-274).
T1 construct: Coated on the ELISA plate
T1 sequence (looked up): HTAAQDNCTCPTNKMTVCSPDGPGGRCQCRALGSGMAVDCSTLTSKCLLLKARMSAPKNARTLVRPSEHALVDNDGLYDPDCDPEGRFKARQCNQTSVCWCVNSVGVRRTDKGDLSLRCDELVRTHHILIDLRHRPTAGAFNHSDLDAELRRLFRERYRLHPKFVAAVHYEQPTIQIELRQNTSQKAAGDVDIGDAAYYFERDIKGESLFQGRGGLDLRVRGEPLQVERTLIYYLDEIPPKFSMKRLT
Put plainly: ELISA, recombinant human Trop-2 coated at 1 ug/mL, anti-human IgG-HRP.

In another experiment the target is T2, Trop-2 on BxPC3 cells (UniProt P09758 27-323, limits assumed).
T2 construct: whole, on cells; also called BxPC3 cells with high expression Trop-2
T2 sequence (looked up): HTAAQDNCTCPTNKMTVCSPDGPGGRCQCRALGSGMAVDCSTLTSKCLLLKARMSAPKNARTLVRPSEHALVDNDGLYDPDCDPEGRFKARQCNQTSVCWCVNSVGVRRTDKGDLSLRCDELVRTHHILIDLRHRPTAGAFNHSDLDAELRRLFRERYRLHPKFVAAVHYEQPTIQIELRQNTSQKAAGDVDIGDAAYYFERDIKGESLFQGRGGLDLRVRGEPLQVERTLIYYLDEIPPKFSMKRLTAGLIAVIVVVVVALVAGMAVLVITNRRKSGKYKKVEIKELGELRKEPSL
Put plainly: flow cytometry of PKH26-stained BxPC3 and CFSE-stained Jurkat cells, as in Example 9. (In flow cytometry, cells or beads pass a laser one at a time.)

B1: heterodimeric anti-Trop-2/anti-CD3-scFv bispecific antibody (bispecific antibody)
heavy: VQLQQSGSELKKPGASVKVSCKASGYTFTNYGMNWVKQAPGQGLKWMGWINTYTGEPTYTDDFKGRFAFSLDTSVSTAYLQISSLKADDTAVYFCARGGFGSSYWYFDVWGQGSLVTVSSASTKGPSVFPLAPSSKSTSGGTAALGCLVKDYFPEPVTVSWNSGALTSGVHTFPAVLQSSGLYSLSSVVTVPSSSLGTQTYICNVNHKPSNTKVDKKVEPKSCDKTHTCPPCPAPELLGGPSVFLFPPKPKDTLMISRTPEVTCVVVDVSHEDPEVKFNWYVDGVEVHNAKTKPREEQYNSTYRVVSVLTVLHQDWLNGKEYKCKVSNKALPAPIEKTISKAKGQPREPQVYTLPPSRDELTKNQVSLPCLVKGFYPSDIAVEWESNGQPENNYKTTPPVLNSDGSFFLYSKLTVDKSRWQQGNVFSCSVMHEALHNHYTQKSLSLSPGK
light: DIQLTQSPSSLSASVGDRVSITCKASQDVSIAVAWYQQKPGKAPKLLIYSASYRYTGVPDRFSGSGSGTDFTLTISSLQPEDFAVYYCQQHYITPLTFGAGTKVEIKRTVAAPSVFIFPPSDEQLKSGTASVVCLLNNFYPREAKVQWKVDNALQSGNSQESVTEQDSKDSTYSLSSTLTLSKADYEKHKVYACEVTHQGLSSPVTKSFNRGEC
scFv: not shown
notes: also called anti-Trop2/anti CD3-scFv heterodimer; Anti-Trop-2/CD3 heterodimeric BsAb
As to B1, the binding result (in experiment [1]; in the experiment with Trop-2 on BxPC3 cells) was “binds” each time.
